Assay [1] addresses T1, Human His-tagged RBP4 (residues 19-201), soluble (human, UniProt P02753 19-201). The assay can be described thus: yeast surface display, flow cytometry: soluble His-tagged RBP4 titrated on yeast displaying the binder, anti-penta-His detection, with 5 µM A1120. The source says: (§1) "a" can be part of a soluble protein (secreted or exogenously added) or of a transmembrane construct and "c" can be part of a signal transducing construct (shown in A and B). Of course, "a" and "c" can be integrated in the constructs vice versa (not shown). There are many more possible arrangements (not shown). […] RBP4-binding was detected with an anti-penta-His antibody and subsequently analyzed by flow cytometry.
For orientation: In flow cytometry, cells or beads pass a laser one at a time.

Assay [2] concerns the target T1, Human His-tagged RBP4 (residues …). The assay can be described thus: yeast surface display, flow cytometry: soluble His-tagged RBP4 titrated on yeast displaying the binder, anti-penta-His detection, with 5 µM A1120; mean of three.
Text: as §1

The target is the same in assay [3]. Nature of the assay: yeast display, + A1120; mean ± S.D., n=3.
For assay [4] the target is unchanged. The assay can be described thus: yeast surface display, flow cytometry: soluble His-tagged RBP4 titrated on yeast displaying the binder, anti-penta-His detection, with 5 µM A1120; mean of three. On the procedure: All small molecules were present at a concentration of 5 µM. RBP4-binding was detected with an anti-penta-His antibody and subsequently analyzed by flow cytometry.
This is another data set of the same source.

Assay [5] has the same target. Nature of the assay: SPR, -A1120; mean ± S.D., n=4. On the procedure:
(§2) The antigen (RBP4) was coated onto a CM5 chip (GE Healthcare) and incubated with various concentrations of lipocalin-fold binding interaction partner solution in HBS-EP (GE Healthcare), followed by a dissociation phase in HBS-EP. […] Finally, K_d values (dissociation constants) were obtained by steady-state analysis.
A general note: In SPR one partner is held on a chip, and binding of the other changes the refractive index at the surface.

For assay [6] the target is unchanged. The assay can be described thus: ITC, -A1120; mean ± S.D., n=4. The procedure:
(§3) The samples were centrifuged (17000 g, 10 min, 20° C.) and dialysed against the same buffer (PBS). RBP4 protein solution was applied to the sample cell and the respective RBP4 binding interaction partners were titrated with varying intervals. Different concentrations both for RBP4 and RBP4 binding interaction partners were used. […] Data analysis was performed with the MicroCal PEAQ-ITC analysis software and the resulting data were fitted to a one-set-of-sites binding model. […] The integrated data were fitted to one-set-of-sites binding model to calculate the K_D values in FIG. 18.
Background: ITC needs no label: the signal is the heat of the interaction.

For assay [7] the target is unchanged. Nature of the assay: ITC, + A1120; mean ± S.D., n=4. The procedure:
as §3

For assay [8] the target is unchanged. Nature of the assay: ITC; ratio of the KD without to the KD with A1120. On the procedure: as §3
The target is the same in assay [9]. The assay can be described thus: SPR, + A1120; mean ± S.D., n=4. On the procedure:
as §2

For assay [10] the target is unchanged. Nature of the assay: SPR (Biacore T200), single-cycle kinetics, RBP4 immobilised on a CM5 chip, RS3 injected at 937.5-15000 nM, without A1120; steady-state analysis; one representative experiment of four. On the procedure: (§4) Applied concentrations of RS3 are indicated in the plots. […] Figure 17B: Figure 17C:
as §2

Assay [11] shares this target. Nature of the assay: SPR (Biacore T200), single-cycle kinetics, RBP4 immobilised on a CM5 chip, RS3 injected at 6.25-100 nM, with 5 µM A1120; steady-state analysis; one representative experiment of four. On the procedure:
as §4, §2

The values that follow come from patent US11844813 (ST ANNA KINDERKREBSFORSCHUNG, dated 2023).

Broadly, the EC50 (read off the curve) is the midpoint of the concentration-response curve. The low end stands for higher potency in that assay, the high end for lower potency in that assay. What is called Kd is the constant that tells how readily two partners part at equilibrium.

B1: RS2, rcSso7d-based lipocalin-fold binding interaction partner, displayed on the surface of yeast (designed binder)
chain: ATVKLTYQGEEKQVDISKIKRVARYGQGIYFDYGEGGGAWGYGSVSEKDAPKELLQMLEKQ
notes: not shown: Yeast display carrier of pCTCON2 (Aga2p, HA tag, linker, C-terminal c-myc tag)
Turning to B1, the “EC50 (read off the curve)” value in assay [1] is around 3 nM. Moreover, the Kd in [2] stood at 2.9 nM.

B2: RS5, rcSso7d-based lipocalin-fold binding interaction partner, displayed on the surface of yeast (designed binder)
chain: ATVKFTYQGEEKQVDISKIKRVARYGQGIYFDYGEGGGAWGYGSVSEEDAPKELLQMLEKQ
notes: not shown: Yeast-display carrier of the pCTCON2 construct (Aga2p anchor, HA tag, linker, c-myc tag)
Take B2: the Kd amounted to 80 nM in assay [3] and 69.5 nM in [2].

B3: RS3, rcSso7d-based lipocalin-fold binding interaction partner, displayed on the surface of yeast (designed binder)
chain: ATVKLTYQGEEKQVDISKIKRVARYGQNIYFSYDEGGGAYDYGAVSEKDAPKELLQMLEKQ
notes: as for B1
With B3, the Kd in assay [3] worked out at 13 nM; in [2], 11.5 nM. Besides, the “EC50 (read off the curve)” value in assay [1] was around 10 nM; in assay [4], around 20 nM.

B4: RS5, rcSso7d-based RBP4 binding interaction partner, soluble protein (designed binder)
chain: ATVKFTYQGEEKQVDISKIKRVARYGQGIYFDYGEGGGAWGYGSVSEEDAPKELLQMLEKQ
notes: Expressed in E. coli as His6-SUMO fusion; Monomeric by SEC
For the molecule B4, the Kd in assay [5] came to 11000 nM; in assay [6], 3780 nM; in [7], 17 nM; in assay [9], 38 nM. Besides, in assay [8], the “KD,-A1120 / KD,+A1120” value is 222.

B5: RS1, rcSso7d-based lipocalin-fold binding interaction partner, displayed on the surface of yeast (designed binder)
chain: ATVKFTYQGEEEQVDISKIKKVARYGQNIYFSYDEGGGAWDYGGVSEKDAPKELLQMLEKQ
notes: as for B1
As for B5, the “EC50 (read off the curve)” value in assay [1] lay within 1 to 2 nM. Further, the Kd in assay [2] was determined as 1.5 nM.

B6: RS3, rcSso7d-based RBP4 binding interaction partner, soluble protein (designed binder)
chain: ATVKLTYQGEEKQVDISKIKRVARYGQNIYFSYDEGGGAYDYGAVSEKDAPKELLQMLEKQ
notes: as for B4
With B6, the Kd in assay [10] worked out at 6130 nM; in assay [5], 4950 nM; in assay [11], 11 nM; in assay [6], 2690 nM; in assay [7] it was 7 nM; in assay [9], 9 nM. The “KD,-A1120 / KD,+A1120” value in [8] was 384.

B7: RS4, rcSso7d-based lipocalin-fold binding interaction partner, displayed on the surface of yeast (designed binder)
chain: ATAKFTYQGEEKQVDISKIKRVARYGQGIYFSYDEGGGAYGYGSVSEKDAPKELLQMLEKQ
notes: as for B1
Molecule B7 came in with a Kd in [2] of 47.6 nM.

B8: RF3, FN3-based lipocalin-fold binding interaction partner, displayed on the surface of yeast (designed binder)
chain: VSDVPRDLEVVAATPTSLLISWYYPNASHAGYYRITYGETGGNSPVQEFTVPFSIRYTIATISGLKPGVDYTITVYAVTASCQYCSYPISINYRTEIDKPSQ
notes: as for B2
In assay [2], B8 yielded a Kd of 67 nM.

B9: RF2, FN3-based lipocalin-fold binding interaction partner, displayed on the surface of yeast (designed binder)
chain: VSDVPRDLEVVAATPTSLLISWYYPNASHAGYYRITYGETGGNSPVQEFTVPFSIRYTIATISGLKPGVDYTITVYAVTDYAYYYRLSEPISINYRTEIDKPSQ
notes: as for B2
As for B9, the Kd in [3] is 65 nM; in assay [2] it was 41.8 nM. The “EC50 (read off the curve)” value in assay [1] is around 40 nM.

B10: RF2, FN3-based RBP4 binding interaction partner, soluble protein (designed binder)
chain: VSDVPRDLEVVAATPTSLLISWYYPNASHAGYYRITYGETGGNSPVQEFTVPFSIRYTIATISGLKPGVDYTITVYAVTDYAYYYRLSEPISINYRTEIDKPSQ
notes: as for B4
For the molecule B10, the figures for the Kd in assay [6] and in assay [7] were 4380 nM and 279 nM, respectively. The “KD,-A1120 / KD,+A1120” value in [8] amounted to 16.

B11: RF1, FN3-based lipocalin-fold binding interaction partner, displayed on the surface of yeast (designed binder)
chain: VSDVPRDLEVVAATPTSLLISWYYPNASHAGYYRVTYGETGGNSPVQEFTVPFSIRYTIATISGLKPGVDHTITVYAVTDYAYYYRSSEPISINYRTEIDKPSQ
notes: as for B2
With B11, in assay [4], the “EC50 (read off the curve)” value is around 6 nM. Moreover, the Kd in assay [2] was 169 nM.
